Key:
PKC-epsilon = biological target: T1, PKC-epsilon (Homo sapiens, UniProt Q02156); assay: In vitro kinase assay: peptide phosphorylation by PKC-epsilon; type: biochemical; details: for PKC-epsilon phosphorylation: normalized to best substrate; for phosphorylation by PKC epsilon: peptide concentration 1 uM
T1 construct: purchased Calbiochem
T1 sequence (Q02156 1-737): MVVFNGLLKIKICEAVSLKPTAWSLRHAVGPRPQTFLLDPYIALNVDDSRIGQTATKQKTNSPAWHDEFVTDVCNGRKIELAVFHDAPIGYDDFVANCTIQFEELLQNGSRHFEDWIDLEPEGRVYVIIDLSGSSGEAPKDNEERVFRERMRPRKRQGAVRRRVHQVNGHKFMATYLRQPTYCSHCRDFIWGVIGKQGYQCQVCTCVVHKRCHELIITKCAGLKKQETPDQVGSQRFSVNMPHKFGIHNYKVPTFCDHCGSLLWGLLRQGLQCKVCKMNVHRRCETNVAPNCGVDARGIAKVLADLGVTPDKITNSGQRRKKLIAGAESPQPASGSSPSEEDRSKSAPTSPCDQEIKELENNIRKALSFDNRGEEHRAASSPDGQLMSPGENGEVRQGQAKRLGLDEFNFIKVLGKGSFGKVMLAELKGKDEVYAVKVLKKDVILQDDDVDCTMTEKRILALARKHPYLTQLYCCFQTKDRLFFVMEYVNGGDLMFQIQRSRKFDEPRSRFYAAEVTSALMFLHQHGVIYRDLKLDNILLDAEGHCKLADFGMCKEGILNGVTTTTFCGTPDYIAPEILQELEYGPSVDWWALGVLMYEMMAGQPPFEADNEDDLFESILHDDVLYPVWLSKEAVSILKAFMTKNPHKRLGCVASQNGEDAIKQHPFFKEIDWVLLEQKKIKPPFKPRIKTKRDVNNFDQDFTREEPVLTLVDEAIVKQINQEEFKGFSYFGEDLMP
Procedure, shortened: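 Active PKC-epsilon (5-20 ng per well) phosphorylated biotinylated peptides in duplicate at 30° C. for about 10 minutes. The PKC buffer was 100 mM HEPES, 0.05% Triton-X100, 1 mM CaCl2, 20 mM MgCl2, 0.2 mg/ml phosphatidyl serine and PMA 100 ng/ml, with 100 μM ATP including ^32P-gamma ATP. Peptides were captured on streptavidin plates, washed, and counted by scintillation, with stoichiometry kept below 5%.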

PKC = assay: In vitro phosphorylation by PKC (average of isoforms alpha, epsilon, delta, theta); type: biochemical; details: for PKC average: average of PKC-alpha, -epsilon, -theta, normalized to best substrate; for average (phosphorylation by PKC-theta, -delta, -epsilon, -alpha): average over PKC-theta, -epsilon and -alpha at 10 and 1 uM peptide, relative to best substrate
Experimental: The conditions of the kinase assay and the amount of active kinase used varied with the kinase and with the accuracy needed. For a typical experiment, 5-20 ng of kinase was used per well and each peptide pool was assayed in duplicate wells. Note that the absolute amount of kinase used was not usually a critical parameter, because the desired information related to specificity of the kinase not its absolute activity, and robustness of the assay depends on comparisons of the same amount of kinase on different peptides. The combination of kinase concentration and assay duration was modified to assure that the stoichiometry of peptide phosphorylation never exceeded 5%. The choice of kinase buffer depended on the kinase being analyzed. For studies of PKC, 100 mM HEPES, 0.05% Triton-X100, 1 mM CaCl2, 20 mM MgCl2, 0.2 mg/ml phosphatidyl serine (Avanti Polar Lipids), PMA 100 ng/ml was typically used. The lipid stock was prepared by transferring 3 mg phosphatidyl serine into iced mixture of 450 μl water plus 50 μl of 10% Triton-X100, sonicating 10 times on ice for 1 sec each.
The kinase reaction mixture was assembled by sequential addition to a tube held on ice of: 5 μl peptide (100 μM for final concentration of 10 μM), 15 μl of kinase (typically 5 ng/well, in appropriate kinase buffer), 30 μl of ATP (1 uCi/well of ^32P-gamma ATP in a stock of 167 μM cold ATP in the kinase buffer; for final concentration for 100 μM ATP). The mixture was rapidly warmed to desired reaction temperature (30° C. for PKC) and incubated for the desired duration (usually 10 minutes). The kinase assay was terminated by transfer to 4° C. water batch, and rapid addition of an equal volume (50 μl) of stop solution [0.1M ATP+0.1M EDTA in water, pH 8].
The peptides were then captured from the reaction mixture by transfer to a Reacti-Bind Streptavidin High Binding Capacity Coated Plates (HBC) (Pierce Biotechnology) as follows. The HBC plates were pre-rinsed three times with PBS/Tween PBS/Tween20 0.05% (PBS/Tween). Part of all of the reaction mixture was then transferred wells of a HBC plate pre-filled with 90 μl of phosphate-buffered saline (PBS); typically each aliquots of each phosphorylation reaction were transferred to duplicate HBC plates to assure accuracy by additional replication
For kinase assays done at the standard peptide concentration of 10 μM, the peptide concentration in the reaction mixture becomes 5 μM after addition of the stop solution; consequently 10 μl of the reaction (50 pMoles of peptide) was transferred to the HBC plate. More generally, the amount of reaction mixture transferred was estimated to be about 50 pMoles of peptide. […] The HBC plates were incubated for 0.5 to 1.5 hr at room temperature for complete binding of biotinylated peptides to plate-bound streptavidin. The HBC plates were then washed extensively with PBS/Tween. Five washes were done routinely and additional wash steps were added if the wash solution removed from the plate had measurable radioactivity as detected using a Geiger counter. This step is essential to obtaining a good the signal to noise ratio because the fraction of radioactivity incorporated in the peptides was a tiny fraction of the total in the reaction mixture. The wells were air-dried. A volume of 40-50 μl of microScint-20 (Packard Instruments) was added to each well. The plates were covered with stick-on film sheet. Radioactive emissions were measured in a TopCount NXT Microplate Scintillation and Luminescence Counter (Packard Instruments). Typically samples were counted for 5 minutes (or more) to improve the signal to noise ratio when counts were low.
Many peptides that are good substrates for PKC enzymes were identified using the methods of the invention. For example, Tables 4 and 5 provide a listing of peptides identified as potentially useful kinase substrates. […]

Row | Substance | PKC-epsilon phosphorylation (PKC-epsilon) | PKC average (PKC) | phosphorylation by PKC epsilon (PKC-epsilon) | average (phosphorylation by PKC-theta, -delta, -epsilon, -alpha) (PKC)
1 | 81 (KRERKTSSKSSVRKRR) [compound 81] | 59% | 56% | – | –
2 | 87 (RQGKRKTSIKRDTVNPL) [compound 87] | 31% | 47% | – | –
3 | 88 (KKPFKLSGLSFKRNRKE) [compound 88] | 44% | 43% | – | –
4 | 91 (VHYTSKDTLRKRHYWR) [compound 91] | 49% | 40% | – | –
5 | 97 (KKRSSKKEASMKKVVRP) [compound 97] | 16% | 28% | – | –
6 | 98 (AGPLRKSSLKKGGRL) [compound 98] | 34% | 27% | – | –
7 | 148 (RELEQLKAEYLERRASRRRA) [compound 148] | – | – | 33 | 26
8 | 149 (RVVQSVKHTKRKSSTVMK) [compound 149] | – | – | 27 | 25
9 | 150 (VDPFYEMLAARKKRISVKKK) [compound 150] | – | – | 20 | 24
10 | 151 (PQNSLKASNRKKKRTSFKRK) [compound 151] | – | – | 24 | 24
11 | 152 (DLIEGRKGAQIVKRASLKRG) [compound 152] | – | – | 25 | 23
12 | 153 (TYLLPDKSRQGKRKTSIKRD) [compound 153] | – | – | 24 | 23
